Laboratory results published in the supplement of paper PMC10598134.
± gives the standard deviation.

Assay: collision cross section of modified peptide (TIMS, N2, iRT-aligned); higher = larger / more extended gas-phase ion
Description: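 1/K0 was aligned run-wise to spiked iRT peptides and converted to CCS in N2 (Mason-Schamp). Values are the mean of 1-3 technical replicates for the most abundant feature at each charge state.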

[1] = charge state: 2, modification: Nitro (Y)
[2] = charge state: 2, modification: GlyGly (K)
[3] = charge state: 3, modification: GlyGly (K)
[4] = charge state: 2, modification: Citrullination (R)
[5] = charge state: 3, modification: Citrullination (R)
[6] = charge state: 2, modification: Formyl
[7] = charge state: 3, modification: Crotonyl
[8] = charge state: 2, modification: HexNAc (ST)
[9] = charge state: 2, modification: Glutarylation
[10] = charge state: 3, modification: Glutarylation
[11] = charge state: 2, modification: Biotin
[12] = charge state: 2, modification: Butyryl
[13] = charge state: 2, modification: Phospho (Y)
[14] = charge state: 2, modification: Methyl (K)
[15] = charge state: 3, modification: Methyl (K)
[16] = charge state: 3, modification: Succinyl
[17] = charge state: 2, modification: Hydroxyproline
[18] = charge state: 2, modification: hydroxyisobutyryl
[19] = charge state: 2, modification: Succinyl
[20] = charge state: 2, modification: Propionyl
[21] = charge state: 2, modification: Trimethyl (K)
[22] = charge state: 2, modification: Acetyl (K)
[23] = charge state: 3, modification: Acetyl (K)
[24] = charge state: 3, modification: hydroxyisobutyryl
[25] = charge state: 2, modification: Crotonyl
[26] = charge state: 3, modification: Butyryl

## TEVNSGFFYK [_TEVNSGFFY(Nitro (Y))K_]
[1]
  collision cross section: 367.43 ± 0.8 Å²

## VPTTEKPTVTVNFR [_VPTTEK(GlyGly (K))PTVTVNFR_]
[2]
  collision cross section: 431.31 ± 0.85 Å²
[3]
  collision cross section: 523.98 ± 3.9 Å²

## FSHSVQNSERGK [_FSHSVQNSER(Citrullination (R))GK_]
[4]
  collision cross section: 390.38 ± 0.44 Å²
[5]
  collision cross section: 441.33 ± 1.8 Å²

## ANLEKAQAELVGTADEATR [_ANLEK(Formyl)AQAELVGTADEATR_]
[6]
  collision cross section: 471.04 ± 1.4 Å²
Charge state: 3, modification: Formyl
  collision cross section: 566.89 ± 0.82 Å²

## LFVGGIKEDTEEHHLR [_LFVGGIK(Crotonyl)EDTEEHHLR_]
[7]
  collision cross section: 544.97 ± 1.3 Å²

## SALAAAQTQVAEYK [_S(HexNAc (ST))ALAAAQTQVAEYK_]
[8]
  collision cross section: 431.97 ± 0.62 Å²

## LFVGGIKEDTEEHHLR [_LFVGGIK(Gluratylation)EDTEEHHLR_]
[9]
  collision cross section: 501.63 ± 1.9 Å²
[10]
  collision cross section: 544.37 ± 0.97 Å²

## PRGVISTPVIR [_PR(Citrullination (R))GVISTPVIR_]
[4]
  collision cross section: 367.21 ± 0.24 Å²
[5]
  collision cross section: 478.04 Å²

## VNALKNLQVK [_VNALK(Biotin)NLQVK_]
[11]
  collision cross section: 393.86 ± 0.23 Å²

## GFCFITYTDEEPVKK [_GFCFITYTDEEPVK(Butyryl)K_]
[12]
  collision cross section: 458.8 ± 0.51 Å²

## GSLEKGSPEDK [_GSLEK(Gluratylation)GSPEDK_]
[9]
  collision cross section: 373.46 ± 0.99 Å²

## GVQYLNEIK [_GVQY(Phospho (Y))LNEIK_]
[13]
  collision cross section: 357.38 ± 0.065 Å²

## LTSLNVKYNNDK [_LTSLNVK(Butyryl)YNNDK_]
[12]
  collision cross section: 414.27 ± 0.78 Å²

## SEASSEFAKK [_SEASSEFAK(Formyl)K_]
[6]
  collision cross section: 345.37 ± 1.6 Å²

## GTVPDDAVEALADSLGKK [_GTVPDDAVEALADSLGK(Methyl (K))K_]
[14]
  collision cross section: 482.51 ± 3.5 Å²
[15]
  collision cross section: 524.02 ± 2.6 Å²

## SPPLPEHQKIPCNSAEPK [_SPPLPEHQK(GlyGly (K))IPCNSAEPK_]
[3]
  collision cross section: 516.26 Å²

## LLFSNTAAQKLR [_LLFSNTAAQK(Biotin)LR_]
[11]
  collision cross section: 418.21 ± 1.1 Å²
Charge state: 3, modification: Biotin
  collision cross section: 503.51 Å²

## YEQEHAAIQDKLFQVAK [_YEQEHAAIQDK(Succinyl)LFQVAK_]
[16]
  collision cross section: 518.31 ± 1.6 Å²

## IVEKYGYTHLSAGELLR [_IVEK(Methyl (K))YGYTHLSAGELLR_]
[15]
  collision cross section: 548.39 ± 0.79 Å²

## GLPGPPGPQGESR [_GLP(Hydroxyproline)GPPGPQGESR_]
[17]
  collision cross section: 363.77 ± 1.6 Å²

## GAEKTEVAEPR [_GAEK(hydroxyisobutyryl)TEVAEPR_]
[18]
  collision cross section: 376.1 ± 9 Å²

## IHNAENIQPGEQKYEYK [_IHNAENIQPGEQK(Malonyl)YEYK_]
Charge state: 3, modification: Malonyl
  collision cross section: 527.67 ± 2.8 Å²

## VPTTEKPTVTVNFR [_VPTTEK(Gluratylation)PTVTVNFR_]
[9]
  collision cross section: 428.25 ± 0.47 Å²
[10]
  collision cross section: 516.1 ± 2.5 Å²

## PSVSTKLISK [_PSVSTK(Succinyl)LISK_]
[19]
  collision cross section: 355.43 ± 0.73 Å²

## DAEAAEATAEGALKAEK [_DAEAAEATAEGALK(Propionyl)AEK_]
[20]
  collision cross section: 451.16 ± 23 Å²

## DKALPLEAEVAPVK [_DK(Propionyl)ALPLEAEVAPVK_]
[20]
  collision cross section: 410.19 Å²

## SKHLQEQLNELK [_SK(Methyl (K))HLQEQLNELK_]
[14]
  collision cross section: 411.32 ± 1.9 Å²
[15]
  collision cross section: 492.52 ± 1.8 Å²

## PSVSTKLISK [_PSVSTK(Formyl)LISK_]
[6]
  collision cross section: 346.92 ± 1.1 Å²

## PANEKATDDYHYEK [_PANEK(Gluratylation)ATDDYHYEK_]
[9]
  collision cross section: 448.09 ± 1.5 Å²
[10]
  collision cross section: 511.51 ± 1 Å²

## YTQVGPDHNR [_Y(Nitro (Y))TQVGPDHNR_]
[1]
  collision cross section: 361.98 ± 1.1 Å²
Charge state: 3, modification: Nitro (Y)
  collision cross section: 411.69 ± 0.22 Å²

## LTSLNVKYNNDK [_LTSLNVK(Methyl (K))YNNDK_]
[14]
  collision cross section: 408.99 ± 1.4 Å²
[15]
  collision cross section: 486.12 ± 3.3 Å²

## SGGRGVSVSSAR [_SGGR(Citrullination (R))GVSVSSAR_]
[4]
  collision cross section: 351.18 ± 4.8 Å²

## ITESVAETAQTIK [_ITESVAET(HexNAc (ST))AQTIK_]
[8]
  collision cross section: 422.03 ± 0.75 Å²

## SLKLNTAEDAK [_SLK(Formyl)LNTAEDAK_]
[6]
  collision cross section: 369.44 ± 0.39 Å²

## GFCFITYTDEEPVKK [_GFCFITYTDEEPVK(Trimethyl (K))K_]
[21]
  collision cross section: 480.23 Å²

## VPTTEKPTVTVNFR [_VPTTEK(Dimethyl (K))PTVTVNFR_]
Charge state: 3, modification: Dimethyl (K)
  collision cross section: 496.28 ± 1.7 Å²

## VTLEVGKVIQQGR [_VTLEVGK(Gluratylation)VIQQGR_]
[9]
  collision cross section: 418.56 ± 0.59 Å²
[10]
  collision cross section: 485.84 ± 1 Å²

## LLEQKTQESQK [_LLEQK(Propionyl)TQESQK_]
[20]
  collision cross section: 393.54 ± 0.65 Å²

## AAQASDLEKIHLDEK [_AAQASDLEK(GlyGly (K))IHLDEK_]
[2]
  collision cross section: 469.33 ± 0.94 Å²
[3]
  collision cross section: 508.49 ± 1.9 Å²

## GDNGSVGEPGPK [_GDNGSVGEP(Hydroxyproline)GPK_]
[17]
  collision cross section: 344.87 ± 1.1 Å²

## TPNLYIYSKK [_TPNLYIYSK(GlyGly (K))K_]
[3]
  collision cross section: 446.34 ± 1.1 Å²

## VTLEVGKVIQQGR [_VTLEVGK(Acetyl (K))VIQQGR_]
[22]
  collision cross section: 405.94 ± 0.47 Å²
[23]
  collision cross section: 479.97 ± 2.5 Å²

## GADFLVTEVENGGSLGSKK [_GADFLVTEVENGGSLGSK(hydroxyisobutyryl)K_]
[18]
  collision cross section: 478.5 ± 1.3 Å²
[24]
  collision cross section: 553.89 Å²

## TVSKVDDFLANEAK [_TVSK(hydroxyisobutyryl)VDDFLANEAK_]
[18]
  collision cross section: 426.08 ± 0.56 Å²

## ITASLCDLKSR [_ITASLCDLK(Succinyl)SR_]
[19]
  collision cross section: 384.23 ± 0.76 Å²

## GTITVSAQELKDNR [_GTITVSAQELK(Crotonyl)DNR_]
[25]
  collision cross section: 422.36 ± 0.55 Å²
[7]
  collision cross section: 483.09 ± 1.6 Å²

## VNVEAPDVNLEGLGGKLK [_VNVEAPDVNLEGLGGK(Gluratylation)LK_]
[9]
  collision cross section: 464.05 ± 2.1 Å²
[10]
  collision cross section: 550.01 Å²

## VFIGNLNTLVVKKK [_VFIGNLNTLVVK(Succinyl)KK_]
[16]
  collision cross section: 514.83 ± 3.9 Å²

## APEYLHR [_APEY(Phospho (Y))LHR_]
[13]
  collision cross section: 334.14 ± 1.5 Å²

## TTGFYSGFSEVAEKR [_TTGFYSGFSEVAEK(Trimethyl (K))R_]
[21]
  collision cross section: 459.26 Å²
Charge state: 3, modification: Trimethyl (K)
  collision cross section: 508.85 ± 1.6 Å²

## TPNLYIYSKK [_TPNLYIYSK(Formyl)K_]
[6]
  collision cross section: 377.67 ± 0.9 Å²

## SPSDSGYSYETIGKTTK [_SPSDSGYSYETIGK(Methyl (K))TTK_]
[14]
  collision cross section: 466.86 ± 1.2 Å²
[15]
  collision cross section: 512.24 ± 3.8 Å²

## LGNDFHTNKR [_LGNDFHTNK(Acetyl (K))R_]
[22]
  collision cross section: 373.86 ± 3.5 Å²
[23]
  collision cross section: 444.24 ± 4 Å²

## GEKGNPGVGTQGPR [_GEKGNP(Hydroxyproline)GVGTQGPR_]
[17]
  collision cross section: 371.11 ± 0.55 Å²
Charge state: 3, modification: Hydroxyproline
  collision cross section: 431.33 ± 1.3 Å²

## GHYTIGK [_GHY(Phospho (Y))TIGK_]
[13]
  collision cross section: 330.16 ± 0.068 Å²

## GGPGGELPRGPQAGLGPR [_GGPGGELPR(Citrullination (R))GPQAGLGPR_]
[4]
  collision cross section: 413.18 ± 0.98 Å²
[5]
  collision cross section: 502.3 ± 0.77 Å²

## DLSTVEALQNLKNLK [_DLSTVEALQNLK(GlyGly (K))NLK_]
[2]
  collision cross section: 473.91 ± 4.8 Å²
[3]
  collision cross section: 514.39 ± 5.7 Å²

## PASGAGAGAGAGKR [_PASGAGAGAGAGK(hydroxyisobutyryl)R_]
[18]
  collision cross section: 363.2 ± 0.9 Å²
[24]
  collision cross section: 470.09 ± 2.8 Å²

## VGEFSGANKEK [_VGEFSGANK(Crotonyl)EK_]
[25]
  collision cross section: 370.98 ± 0.8 Å²

## VGIDTPDIDIHGPEGKLK [_VGIDTPDIDIHGPEGK(hydroxyisobutyryl)LK_]
[18]
  collision cross section: 500.35 ± 0.99 Å²
[24]
  collision cross section: 542.95 ± 2 Å²

## ANLEKAQAELVGTADEATR [_ANLEK(Acetyl (K))AQAELVGTADEATR_]
[22]
  collision cross section: 471.91 ± 3.1 Å²
[23]
  collision cross section: 570.31 ± 0.74 Å²

## HGGSGGRGVSVSSAR [_HGGSGGR(Citrullination (R))GVSVSSAR_]
[5]
  collision cross section: 485.51 ± 3.7 Å²

## IQQELQTAKK [_IQQELQTAK(Butyryl)K_]
[12]
  collision cross section: 385.32 ± 2.2 Å²
[26]
  collision cross section: 441.3 Å²

## GAPGPQGPPGPPGK [_GAPGPQGPPGPP(Hydroxyproline)GK_]
[17]
  collision cross section: 359.87 ± 0.26 Å²

## IDLPAENSNSETIIITGKR [_IDLPAENSNSETIIITGK(GlyGly (K))R_]
[2]
  collision cross section: 493.9 ± 1.8 Å²
[3]
  collision cross section: 582.79 ± 0.38 Å²

## ASDTSSETVFGKR [_ASDTSSETVFGK(Malonyl)R_]
Charge state: 2, modification: Malonyl
  collision cross section: 387.3 ± 0.61 Å²

## LDEKENLSAK [_LDEK(Crotonyl)ENLSAK_]
[25]
  collision cross section: 370.68 ± 0.26 Å²

## LGVATVAKGVCGACK [_LGVATVAK(Butyryl)GVCGACK_]
[12]
  collision cross section: 418.39 ± 0.77 Å²
[26]
  collision cross section: 491.64 Å²
